Our source for the Km values is PMC5940811, “The lactose operon from Lactobacillus casei is involved in the transport and metabolism of the human milk oligosaccharide core-2 N-acetyllactosamine” (Scientific Reports, 2018).

Substrate in the data set: O=[N+]([O-])c1ccccc1O[C@@H]1O[C@H](COP(=O)(O)O)[C@H](O)[C@H](O)[C@H]1O
Briefly: purified protein. It counts as biochemical, Lacticaseibacillus casei. As to conditions: activity assay in 100 mM Tris-HCl pH 7.0, 37 °C, kinetics as in cited earlier work.

B1: phospho-β-galactosidase LacG; 6x(His)LacG (Lacticaseibacillus casei BL23) (protein)
chain: MSKQLPQDFVMGGATAAYQVEGATKEDGKGRVLWDDFLDKQGRFKPDPAADFYHRYDEDLALAEKYGHQVIRVSIAWSRIFPDGAGEVEPRGVAFYHKLFADCAAHHIEPFVTLHHFDTPERLHEAGDWLSQEMLDDFVAYAKFCFEEFSEVKYWITINEPTSMAVQQYTSGTFPPAESGRFDKTFQAEHNQMVAHARIVNLYKSMQLGGQIGIVHALQTVYPYSDSAVDHHAAELQDALENRLYLDGTLAGEYHQETLALVKEILDANHQPMFQSTPQEMKAIDEAAHQLDFVGVNNYFSKWLRAYHGKSETIHNGDGTKGSSVARLQGVGEEKLPDGIETTDWDWSIYPRGMYDILMRIHNDYPLVPVTYVTENGIGLKESLPENATPDTVIEDPKRIDYVKKYLSAMADAIHDGANVKGYFIWSLQDQFSWTNGYSKRYGLFFVDFPTQNRYIKQSAEWFKSVSETHIIPD
notes: full coding region in pQE80 (BamHI/PstI), 6xHis tag (N-terminal by vector), E. coli BE50 host, purified; 55 kDa, calculated tagged mass 55,305 Da
The Km is the concentration of substrate that gives half-maximal velocity. For B1, the Michaelis-Menten constant (Km) was found to be 3000 µM.
